{"source": "patent US20230285589A1", "about": "“LIPOSOME COMPLEX FOR CANCER TREATMENT, COMPRISING NOVEL CD47 BINDER AND POLYNUCLEOTIDE” (priority 2020, published 2023)", "molecular_target": "recombinant CD47 protein (Homo sapiens, UniProt Q08722)", "sequence (Q08722 19-323)": "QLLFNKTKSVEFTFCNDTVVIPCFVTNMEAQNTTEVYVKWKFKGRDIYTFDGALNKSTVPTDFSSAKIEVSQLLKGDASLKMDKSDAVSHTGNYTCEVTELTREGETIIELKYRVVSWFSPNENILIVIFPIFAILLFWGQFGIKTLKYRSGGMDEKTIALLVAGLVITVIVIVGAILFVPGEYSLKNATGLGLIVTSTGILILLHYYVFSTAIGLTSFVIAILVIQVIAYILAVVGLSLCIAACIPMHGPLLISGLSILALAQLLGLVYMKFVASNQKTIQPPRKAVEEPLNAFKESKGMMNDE", "experiment": "SPR, CD47 conjugated to CM5 chip", "details": "250 RU CD47, 1:1 binding model", "protocol": "Specifically, the recombinant CD47 protein was conjugated to the surface of the CM5 chip by a target SPR reaction of 250 RU through an EDC-NHS reaction to be used, and for HBS-P, the sensogram obtained through a process of association for 3 minutes and dissociation for 10 minutes at a flow rate of 30 μL/minutes was analyzed with the BiaEvaluation software using a 1:1 binding model and global fitting."}
{"substance": "Sirpα: pure Sirpa (SEQ ID NO: 25), water-soluble domain of the original CD47 ligand", "values": [{"measurement": "ka", "result": 610000, "unit": "M⁻¹ s⁻¹"}, {"measurement": "kd", "result": 0.37, "unit": "s⁻¹"}, {"measurement": "Kd", "setting": "listed as Sirpa(wt)", "result": 280, "unit": "nM"}]}
